Test results from article PMC7374964 (BMC Biology, 2020).

Assays:
Details in all cases: one partner purified
[1] = target: T1, HIV-1 ADA Env on CEM-NKR cells infected with the Nef- and Vpu-defective virus (NL4.3 GFP ADA/Nef-Vpu-), with … (HIV-1 ADA (Env clone not named); Homo …, UniProt Q6TAN8;P01730, strain); test: flow cytometry on cells
T1 construct: also called ADA/N-U- infected cells; pNL43/ADA/N-U- infected CEM-NKR target cells; copies: 3 + 3 +

[2] = target: T2, HIV-1 BaL Env on free pseudovirus particles (HIV-1 BaL (Env clone not named), UniProt Q2MKA8, strain); test: fluorescence correlation spectroscopy (FCS)
T2 construct: copies: 3 + 3

[3] = target: T3, HIV-1 JRFL Env on free pseudovirus particles (HIV-1 JRFL, UniProt Q75760, strain); test: fluorescence correlation spectroscopy (FCS)
T3 construct: copies: 3 + 3

[4] = target: T4, HIV-1 BaL Env on pseudovirus particles treated with the CD4 mimetic peptide M48U1 (HIV-1 BaL (Env clone not named), UniProt Q2MKA8, strain); test: fluorescence correlation spectroscopy (FCS)
T4 construct: source: HIV-1 BaL pseudoviruses [72] treated for 90 min at 37 °C with 200 ug/ml of M48U1; copies: 3 + 3 +

[5] = target: T5, HIV-1 JRFL Env on pseudovirus particles treated with the CD4 mimetic peptide M48U1 (HIV-1 JRFL, UniProt Q75760, strain); test: fluorescence correlation spectroscopy (FCS)
T5 construct: copies: 3 + 3 +

Measured: binding result

B1: mAb X5 (antibody, V domains shown)
VH: VQLLEQSGAEVKKPGSSVQVSCKASGGTFSMYGFNWVRQAPGHGLEWMGGIIPIFGTSNYAQKFRGRVTFTADQATSTAYMELTNLRSDDTAVYYCARDFGPDWEDGDSYDGSGRGFFDFWGQGTLVTVSS
VL: ELVLTQSPGTLSLSAGERATLSCRASQSVSSGSLAWYQQKPGQAPRLLIYGASTRATGIPDRFSGSGSGTDFTLTIGRLEPEDLAVYYCQQYGTSPYTFGQGTKLEIK
notes: source: generated in house [15]
binds: all assays above
